In US20230366033A1 (University of Texas, published 2023):
Where no end group is shown, it is not given here. [ ]: non-standard residue; d: D form. pY = N[C@@H](Cc1ccc(OP(=O)(O)O)cc1)C(=O)O

T1: Flag-RAD50 expressed in HEK293T cells (UniProt Q92878 1-1312, limits assumed)
T1 construct: not shown: Flag tag
T1 sequence (looked up): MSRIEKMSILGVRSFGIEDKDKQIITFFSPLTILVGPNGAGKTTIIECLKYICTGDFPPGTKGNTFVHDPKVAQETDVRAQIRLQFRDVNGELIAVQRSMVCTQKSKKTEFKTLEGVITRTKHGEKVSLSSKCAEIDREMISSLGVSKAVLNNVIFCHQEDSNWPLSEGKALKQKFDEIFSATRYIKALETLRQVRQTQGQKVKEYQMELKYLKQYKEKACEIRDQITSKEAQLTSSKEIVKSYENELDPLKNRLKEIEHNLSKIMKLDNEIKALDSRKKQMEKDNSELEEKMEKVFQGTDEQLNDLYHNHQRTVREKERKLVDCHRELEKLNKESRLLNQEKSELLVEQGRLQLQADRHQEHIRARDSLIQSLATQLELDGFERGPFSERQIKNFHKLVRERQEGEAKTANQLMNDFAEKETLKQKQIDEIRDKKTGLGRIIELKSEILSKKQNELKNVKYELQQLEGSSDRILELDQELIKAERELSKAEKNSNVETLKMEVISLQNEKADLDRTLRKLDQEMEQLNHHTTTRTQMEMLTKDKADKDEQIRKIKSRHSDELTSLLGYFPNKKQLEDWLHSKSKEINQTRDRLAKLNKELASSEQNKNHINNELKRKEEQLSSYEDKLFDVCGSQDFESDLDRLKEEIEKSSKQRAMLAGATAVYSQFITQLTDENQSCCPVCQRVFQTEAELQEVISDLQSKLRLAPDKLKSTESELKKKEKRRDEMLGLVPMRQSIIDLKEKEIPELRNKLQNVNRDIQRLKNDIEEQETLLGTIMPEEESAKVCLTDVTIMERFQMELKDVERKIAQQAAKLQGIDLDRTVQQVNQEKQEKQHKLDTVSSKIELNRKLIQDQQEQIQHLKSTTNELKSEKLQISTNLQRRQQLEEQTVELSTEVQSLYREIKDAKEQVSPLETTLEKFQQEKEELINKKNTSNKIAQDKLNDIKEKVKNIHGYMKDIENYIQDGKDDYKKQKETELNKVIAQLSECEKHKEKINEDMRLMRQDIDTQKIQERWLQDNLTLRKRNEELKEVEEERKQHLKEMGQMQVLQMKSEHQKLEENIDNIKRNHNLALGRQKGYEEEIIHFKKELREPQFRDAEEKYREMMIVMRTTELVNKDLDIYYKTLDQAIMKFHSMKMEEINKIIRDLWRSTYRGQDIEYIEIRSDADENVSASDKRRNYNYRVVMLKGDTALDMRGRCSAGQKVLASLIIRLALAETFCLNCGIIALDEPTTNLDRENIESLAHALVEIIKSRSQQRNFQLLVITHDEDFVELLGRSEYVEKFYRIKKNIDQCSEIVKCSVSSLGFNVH

T2: Human MRE11 core (residues 1-411), bacterially expressed and purified (human, UniProt P49959 1-411)
T2 construct: range 1-411; the only purified MRE11 described is the 1-411 core; also called human MRE11 (residue 1-411); bacterially purified MRE11
T2 sequence (looked up): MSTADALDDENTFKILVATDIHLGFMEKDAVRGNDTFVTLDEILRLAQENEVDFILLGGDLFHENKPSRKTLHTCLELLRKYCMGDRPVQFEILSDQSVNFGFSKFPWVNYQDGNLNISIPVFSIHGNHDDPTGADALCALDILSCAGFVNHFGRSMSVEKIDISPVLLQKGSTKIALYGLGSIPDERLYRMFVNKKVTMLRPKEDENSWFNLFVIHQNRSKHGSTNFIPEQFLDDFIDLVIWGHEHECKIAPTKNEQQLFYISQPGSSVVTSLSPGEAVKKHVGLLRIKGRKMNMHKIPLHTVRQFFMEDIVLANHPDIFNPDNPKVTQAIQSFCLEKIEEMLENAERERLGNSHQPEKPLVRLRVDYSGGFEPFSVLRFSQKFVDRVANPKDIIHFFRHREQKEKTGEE

T3: NBS1, endogenous, in HEK293T cell extracts (UniProt O60934 1-754)
T3 sequence (looked up): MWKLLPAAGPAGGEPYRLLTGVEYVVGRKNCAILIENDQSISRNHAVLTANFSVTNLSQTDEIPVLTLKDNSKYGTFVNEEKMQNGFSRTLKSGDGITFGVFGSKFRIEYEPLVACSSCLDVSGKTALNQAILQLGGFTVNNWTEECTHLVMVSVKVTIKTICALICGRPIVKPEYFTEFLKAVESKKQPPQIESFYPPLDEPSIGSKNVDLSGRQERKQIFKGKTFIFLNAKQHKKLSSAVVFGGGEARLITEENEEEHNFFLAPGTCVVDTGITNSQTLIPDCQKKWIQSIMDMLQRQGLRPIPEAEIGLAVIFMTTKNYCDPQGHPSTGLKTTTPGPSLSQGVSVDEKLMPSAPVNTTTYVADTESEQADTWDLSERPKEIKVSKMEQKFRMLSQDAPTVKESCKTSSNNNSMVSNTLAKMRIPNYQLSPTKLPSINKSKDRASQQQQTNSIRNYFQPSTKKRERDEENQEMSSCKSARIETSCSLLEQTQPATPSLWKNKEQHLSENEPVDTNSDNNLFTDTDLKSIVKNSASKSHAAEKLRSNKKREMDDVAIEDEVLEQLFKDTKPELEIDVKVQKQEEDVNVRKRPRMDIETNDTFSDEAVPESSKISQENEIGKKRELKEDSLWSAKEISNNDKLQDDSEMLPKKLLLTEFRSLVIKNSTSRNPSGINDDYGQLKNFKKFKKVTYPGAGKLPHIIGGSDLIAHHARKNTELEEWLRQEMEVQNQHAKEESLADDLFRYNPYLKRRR

B1: MRE11, endogenous, in extracts of human cell lines (HEK293T, HeLa, U2OS) (enzyme, UniProt P49959 2-708, looked up)
chain: STADALDDENTFKILVATDIHLGFMEKDAVRGNDTFVTLDEILRLAQENEVDFILLGGDLFHENKPSRKTLHTCLELLRKYCMGDRPVQFEILSDQSVNFGFSKFPWVNYQDGNLNISIPVFSIHGNHDDPTGADALCALDILSCAGFVNHFGRSMSVEKIDISPVLLQKGSTKIALYGLGSIPDERLYRMFVNKKVTMLRPKEDENSWFNLFVIHQNRSKHGSTNFIPEQFLDDFIDLVIWGHEHECKIAPTKNEQQLFYISQPGSSVVTSLSPGEAVKKHVGLLRIKGRKMNMHKIPLHTVRQFFMEDIVLANHPDIFNPDNPKVTQAIQSFCLEKIEEMLENAERERLGNSHQPEKPLVRLRVDYSGGFEPFSVLRFSQKFVDRVANPKDIIHFFRHREQKEKTGEEINFGKLITKPSEGTTLRVEDLVKQYFQTAEKNVQLSLLTERGMGEAVQEFVDKEEKDAIEELVKYQLEKTQRFLKERHIDALEDKIDEEVRRFRETRQKNTNEEDDEVREAMTRARALRSQSEESASAFSADDLMSIDLAEQMANDSDDSISAATNKGRGRGRGRRGGRGQNSASRGGSQRGRADTGLETSTRSRNSKTAVSASRNMSIIDAFKSTRQQPSRNVTTKNYSEVIEVDESDVEEDIFPTTSKTDQRWSSTSSSKIMSQSQVSKGVDFESSEDDDDDPFMNTSSLRRNRR
B2: RPA70 N-terminal domain (residues 1-120), purified (other, UniProt P27694 1-120, looked up)
chain: MVGQLSEGAIAAIMQKGDTNIKPILQVINIRPITTGNSPPRYRLLMSDGLNTLSSFMLATQLNPLVEEEQLSSNCVCQIHRFIVNTLKDGRRVVILMELEVLKSAEAVGVKIGNPVPYNE
modifications: Atto488 label
notes: range 1-120; also called RPA70 N-terminal OB1 domain; RPA70N (1-120)
B3: Tyrosine-phosphorylated MRE11 peptide WVNpYQDGNLN (peptide)
peptide: WVN[pY]QDGNLN
modifications: not fully specified
notes: also called Y111 phosphorylated MRE11 peptide; tyrosine phosphorylated peptide
B4: GST-fused GRB2 C-terminal SH3 (cSH3) domain (other, UniProt P62993 156-217, looked up)
chain: QQPTYVQALFDFDPQEDGELGFRRGDFIHVMDNSDPNWWKGACHGQTGMFPRNYVTPVNRNV
notes: domain: C-terminal (cSH3); not shown: glutathione S-transferase (GST)
B5: GRB2 OB1 peptide KYDFKATADDELSFKRG (peptide)
peptide: KYDFKATADDELSFKRG
notes: Synthetic, from GenScript; also called GRB2-derived OB1 peptide
B6: GST-fused GRB2 N-terminal SH3 (nSH3) domain (other, UniProt P62993 1-58, looked up)
chain: MEAIAKYDFKATADDELSFKRGDILKVLNEECDQNWYKAELNGKDGFIPKNYIEMKPH
notes: domain: N-terminal SH3 (nSH3); not shown: glutathione S-transferase (GST)
B7: Phosphorylated H2AX peptide PSGGKKATQA(pS)QEY (pS139 only) (peptide)
peptide: PSGGKKATQAXQEY
modifications: phosphoserine at position 11 (S139 of H2AX)
notes: Synthetic, from GenScript; also called pS139 H2AX
B8: Flag-MRE11 expressed in HEK293T cells (enzyme, UniProt P49959 1-708, looked up)
chain: MSTADALDDENTFKILVATDIHLGFMEKDAVRGNDTFVTLDEILRLAQENEVDFILLGGDLFHENKPSRKTLHTCLELLRKYCMGDRPVQFEILSDQSVNFGFSKFPWVNYQDGNLNISIPVFSIHGNHDDPTGADALCALDILSCAGFVNHFGRSMSVEKIDISPVLLQKGSTKIALYGLGSIPDERLYRMFVNKKVTMLRPKEDENSWFNLFVIHQNRSKHGSTNFIPEQFLDDFIDLVIWGHEHECKIAPTKNEQQLFYISQPGSSVVTSLSPGEAVKKHVGLLRIKGRKMNMHKIPLHTVRQFFMEDIVLANHPDIFNPDNPKVTQAIQSFCLEKIEEMLENAERERLGNSHQPEKPLVRLRVDYSGGFEPFSVLRFSQKFVDRVANPKDIIHFFRHREQKEKTGEEINFGKLITKPSEGTTLRVEDLVKQYFQTAEKNVQLSLLTERGMGEAVQEFVDKEEKDAIEELVKYQLEKTQRFLKERHIDALEDKIDEEVRRFRETRQKNTNEEDDEVREAMTRARALRSQSEESASAFSADDLMSIDLAEQMANDSDDSISAATNKGRGRGRGRRGGRGQNSASRGGSQRGRADTGLETSTRSRNSKTAVSASRNMSIIDAFKSTRQQPSRNVTTKNYSEVIEVDESDVEEDIFPTTSKTDQRWSSTSSSKIMSQSQVSKGVDFESSEDDDDDPFMNTSSLRRNRR
notes: not shown: Flag tag
B9: Phosphorylated H2AX peptide PSGGKKATQASQE(pY) (pY142 only) (peptide)
peptide: PSGGKKATQASQEX
modifications: phosphotyrosine at position 14 (Y142 of H2AX)
notes: Synthetic, from GenScript; also called pY142 H2AX

How the values were obtained:
[1] = target: T4, Flag-tagged POLQ (polymerase theta) overexpressed in HEK293T cells (UniProt O75417 1-2590, limits assumed); assay: Flag immunoprecipitation from HEK293T cells with or without 5 Gy IR, western blot [panel C]
T4 construct: also called Flag-POLQ; not shown: Flag tag

[2] = target: T1, Flag-RAD50 expressed in HEK293T cells; assay: Flag-M2 immunoprecipitation from HEK293T cells co-transfected with RFP-GRB2, western blot [panel E]
[3] = target: T5, GRB2 (growth factor receptor-bound protein 2), wild-type, full-length, bacterially expressed and purified (UniProt P62993 1-217, Atto488 label where used as the labelled partner in MST); assay: MST, 50 nM Atto488-labelled RPA70 N-terminal domain (1-120), GRB2 titrated [panel D]
T5 construct: domain: full-length; also called WTGRB2; non-ubiquitinated GRB2

[4] = target: T5, GRB2 (growth factor receptor-bound …); assay: MST with the Y111 phosphorylated MRE11 peptide
[5] = target: T6, GRB2-SH2 domain, purified, Atto488-labelled (UniProt P62993 60-152, limits assumed, Atto488 label); assay: MST with the Y111 phosphorylated MRE11 peptide
T6 construct: domain: SH2; Individual GRB2 domains generated as described before (Ahmed et al., 2010)

[6] = target: T7, RPA70, endogenous, in HEK293T cell extracts (UniProt P27694 1-616); assay: GST pull-down from HEK293T cell extracts, western blot [panel B]
T7 construct: also called RPA1

[7] = target: B2; assay: MST, 50 nM Atto488-labelled RPA70 N-terminal domain (1-120), peptide titrated [panel D]
[8] = target: T2, Human MRE11 core (residues 1-411), …; assay: GST pull-down of bacterially expressed, purified human MRE11, western blot [panel C]
[9] = target: T6, GRB2-SH2 domain, purified, …; assay: MST, 100 nM Atto488-labelled GRB2-SH2 domain, peptide titrated
[10] = target: T8, GRB2 K109R mutant, bacterially expressed and purified (UniProt P62993 1-217, Atto488 label in MST); assay: MST, 100 nM Atto488-labelled K109R GRB2, peptide titrated
T8 construct: domain: full-length; also called K109RGRB2; K109R GRB2 mutant

[11] = target: T6, GRB2-SH2 domain, purified, …; assay: MST; 100 nM Atto488-labelled GRB2-SH2 domain, peptide titrated; unphosphorylated MRE11 peptide
[12] = target: T3, NBS1, endogenous, in HEK293T cell …; assay: Flag-M2 immunoprecipitation from HEK293T cells, unperturbed or 5 Gy IR, western blot

T4 sequence (O75417 whole entry): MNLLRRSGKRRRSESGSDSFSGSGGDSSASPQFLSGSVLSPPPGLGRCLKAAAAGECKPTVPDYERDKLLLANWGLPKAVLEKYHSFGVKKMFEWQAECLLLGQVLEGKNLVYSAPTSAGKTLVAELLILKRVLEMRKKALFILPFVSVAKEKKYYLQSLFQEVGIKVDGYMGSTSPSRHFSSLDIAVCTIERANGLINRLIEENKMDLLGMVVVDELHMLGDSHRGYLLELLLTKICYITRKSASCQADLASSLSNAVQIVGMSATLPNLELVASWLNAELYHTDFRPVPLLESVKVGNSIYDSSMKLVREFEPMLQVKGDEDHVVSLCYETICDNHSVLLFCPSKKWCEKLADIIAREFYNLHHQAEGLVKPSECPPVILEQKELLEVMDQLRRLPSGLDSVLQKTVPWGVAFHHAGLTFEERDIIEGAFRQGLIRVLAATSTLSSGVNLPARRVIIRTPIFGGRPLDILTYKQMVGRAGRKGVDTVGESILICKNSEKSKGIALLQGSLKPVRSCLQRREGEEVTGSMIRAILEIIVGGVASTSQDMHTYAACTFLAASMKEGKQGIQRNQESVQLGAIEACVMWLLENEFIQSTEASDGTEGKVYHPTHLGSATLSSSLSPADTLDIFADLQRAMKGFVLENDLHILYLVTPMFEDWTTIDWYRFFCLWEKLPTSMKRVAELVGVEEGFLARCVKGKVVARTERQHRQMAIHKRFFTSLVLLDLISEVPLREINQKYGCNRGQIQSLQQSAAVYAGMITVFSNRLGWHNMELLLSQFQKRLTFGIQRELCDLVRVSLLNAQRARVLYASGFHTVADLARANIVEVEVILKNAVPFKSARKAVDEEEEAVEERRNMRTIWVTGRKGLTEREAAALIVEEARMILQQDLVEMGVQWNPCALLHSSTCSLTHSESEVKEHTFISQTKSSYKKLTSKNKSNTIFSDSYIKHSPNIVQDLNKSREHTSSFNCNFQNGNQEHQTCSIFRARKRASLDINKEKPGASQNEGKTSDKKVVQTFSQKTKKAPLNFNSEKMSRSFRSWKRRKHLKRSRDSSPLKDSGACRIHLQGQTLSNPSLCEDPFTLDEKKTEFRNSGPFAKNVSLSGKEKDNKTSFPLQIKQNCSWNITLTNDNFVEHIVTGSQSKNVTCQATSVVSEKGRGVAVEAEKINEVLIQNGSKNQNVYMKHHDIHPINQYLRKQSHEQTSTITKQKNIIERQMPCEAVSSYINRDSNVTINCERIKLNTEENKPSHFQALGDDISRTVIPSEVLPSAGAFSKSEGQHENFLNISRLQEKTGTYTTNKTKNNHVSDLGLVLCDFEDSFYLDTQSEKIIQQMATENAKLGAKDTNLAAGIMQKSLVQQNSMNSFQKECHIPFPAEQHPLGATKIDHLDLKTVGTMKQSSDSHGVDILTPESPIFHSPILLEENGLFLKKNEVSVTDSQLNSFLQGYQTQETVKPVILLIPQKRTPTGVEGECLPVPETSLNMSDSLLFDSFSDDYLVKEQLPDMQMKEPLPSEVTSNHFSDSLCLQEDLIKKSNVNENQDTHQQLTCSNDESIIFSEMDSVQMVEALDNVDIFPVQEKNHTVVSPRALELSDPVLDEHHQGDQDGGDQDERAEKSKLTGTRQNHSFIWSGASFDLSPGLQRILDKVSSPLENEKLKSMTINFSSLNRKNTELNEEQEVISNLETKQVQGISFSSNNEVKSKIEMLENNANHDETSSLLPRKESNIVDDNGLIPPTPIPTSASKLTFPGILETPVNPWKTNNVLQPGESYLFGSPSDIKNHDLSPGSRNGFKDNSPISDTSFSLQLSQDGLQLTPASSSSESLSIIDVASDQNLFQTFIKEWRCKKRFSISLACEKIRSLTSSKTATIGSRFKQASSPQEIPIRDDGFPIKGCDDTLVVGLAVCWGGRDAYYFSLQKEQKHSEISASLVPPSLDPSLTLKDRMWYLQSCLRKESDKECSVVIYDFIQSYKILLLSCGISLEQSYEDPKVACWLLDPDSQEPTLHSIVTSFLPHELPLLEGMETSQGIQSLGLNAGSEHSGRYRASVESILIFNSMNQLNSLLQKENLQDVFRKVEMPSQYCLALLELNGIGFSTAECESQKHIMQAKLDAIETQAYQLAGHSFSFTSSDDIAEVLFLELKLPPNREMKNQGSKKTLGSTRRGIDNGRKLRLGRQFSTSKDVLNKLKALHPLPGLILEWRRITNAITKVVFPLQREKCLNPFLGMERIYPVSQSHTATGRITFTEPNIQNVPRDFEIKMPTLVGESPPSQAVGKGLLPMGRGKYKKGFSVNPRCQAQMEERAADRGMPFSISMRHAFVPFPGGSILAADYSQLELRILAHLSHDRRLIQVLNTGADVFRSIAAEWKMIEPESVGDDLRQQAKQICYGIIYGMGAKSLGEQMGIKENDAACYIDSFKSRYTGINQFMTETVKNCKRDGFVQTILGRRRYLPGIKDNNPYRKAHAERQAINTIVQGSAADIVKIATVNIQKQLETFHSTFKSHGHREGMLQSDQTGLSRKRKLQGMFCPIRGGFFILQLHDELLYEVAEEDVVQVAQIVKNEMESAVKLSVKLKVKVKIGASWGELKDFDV

B1
binding result [1]: binds | binding result [2]: binds

B2
Kd [3]: 1600 nM

B3
Kd [4]: 19.7 µM | Kd [5]: 46.8 µM

B4
binding result [6]: no binding

B5
Kd [7]: 2100 nM

B6
binding result [8]: no binding

B7
binding result [9]: no binding

WVNYQDGNLN [MRE11 peptide WVNYQDGNLN]
Kd [10]: > 200 µM | Kd [11]: 33 µM

B8
binding result [12]: binds

B9
binding result [9]: no binding (tested: about 50 µM)
